Numbering of substitutions follows the chain as printed. Names may count otherwise. Blank lines part the entries; values can stand above or below the binder they belong to.
What was measured:
human CLDN6 [1] = molecular target: T1, human CLDN6 (human, UniProt P56747 1-220); assay: flow cytometry on HEK293E cells expressing CLDN6
T1 construct: also called Claudin 6
T1 sequence: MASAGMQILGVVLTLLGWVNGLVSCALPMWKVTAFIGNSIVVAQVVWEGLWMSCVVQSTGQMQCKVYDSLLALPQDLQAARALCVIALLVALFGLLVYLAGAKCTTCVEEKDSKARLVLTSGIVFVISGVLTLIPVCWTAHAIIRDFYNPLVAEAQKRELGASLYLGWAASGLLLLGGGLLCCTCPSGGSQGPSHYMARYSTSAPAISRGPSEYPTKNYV
Method: (§1) The following experiments used to screen CLDN6 binding domains were generally performed as follows. HEK293T or HEK293E cells were respectively stably or transiently transfected to express CLDN6, CLND9, or other targets of interest. 48 hours post transfection, cells were harvested and incubated with dilutions of the indicated test articles for 1 hour at 4° C. […] Binding was then assessed via flow cytometry.

human CLDN6 [2] = molecular target: T1, human CLDN6; assay: flow cytometry on HEK293E cells expressing CLDN6 or CLDN9; EC50 on CLDN9 cells divided by EC50 on CLDN6 cells
Method: as §1

human CLDN6 [3] = molecular target: T1, human CLDN6; assay: flow cytometry on transfected cells
human CLDN6 [4] = molecular target: T1, human CLDN6; assay: flow cytometry on HEK293-Trex cells stably expressing the claudin
human CLDN9 = molecular target: T2, human CLDN9 (human, UniProt O95484 1-217); assay: flow cytometry on transfected HEK293E cells
T2 construct: also called CLND9
T2 sequence: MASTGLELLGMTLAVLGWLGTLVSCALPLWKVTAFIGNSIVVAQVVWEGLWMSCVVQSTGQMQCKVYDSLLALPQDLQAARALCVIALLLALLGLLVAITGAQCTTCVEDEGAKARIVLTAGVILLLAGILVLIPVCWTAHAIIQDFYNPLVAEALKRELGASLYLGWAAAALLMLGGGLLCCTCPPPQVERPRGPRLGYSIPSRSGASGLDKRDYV
Method: as §1

binding result (human CLDN6 [3]): binds
B7: XENP34219, humanized C6-30 H1L2 bivalent mAb (antibody, human IgG1, kappa, V domains shown)
VH: QVQLVQSGAEVKKPGASVKVSCKTSGYTFTEYTMHWVRQAPGQSLEWMGGIDPNNGNTHYNQKFQGRVTITVDKSASTAYMELSSLRSEDTAVYYCARIYYFGRLYFDFWGAGTLVTVSS
VL: DIQMTQSPDSLAVSLGERATINCKASEDIYNRLAWYQQKPGQVPKLLISGATSLETGVPSRFSGSGSGKDYTLTISSLQAEDVAVYYCQQYWSSPLTFGGGTKVEIKR
notes: IgG1 with ablation variant; copies: 2 + 2

binding result (human CLDN6 [3]): binds
B8: XENP34220, humanized C6-30 H2L1 bivalent mAb (antibody, human IgG1, kappa, V domains shown)
VH: EVQLVQSGAEVKKPGESLRISCKTSGYTFTEYTMHWVRQMPGKSLEWMGGIDPNNGNTHYNQKFQGHVTISVDKSISTAYLQWSSLKASDTAMYYCARIYYFGRLYFDFWGAGTLVTVSS
VL: DIQMTQSPSSLSASVGDRVTITCQASEDIYNRLAWYQQKPGKVPKLLISGATSLETGVPSRFSGSGSGKDYTFTISSLQPEDIATYYCQQYWSSPLTFGGGTKVEIKR
notes: IgG1 backbone with ablation variant; copies: 2 + 2

binding result (human CLDN9): binds
B9: XENP35102 having H2.9_L1 (antibody, human IgG1, kappa, V domains shown)
VH: B8 VH with G56A
VL: B8 VL
notes: Bivalent mAb; also called C6-30 H2.9_L1; copies: 2 + 2

binding result (human CLDN6 [1]): binds
B11: XENP37231 (C6-30_H1.24_L1.187), 2+1 Fab2-scFv-Fc bsAb with CD3 High-Int #1 (bispecific antibody)
heavy 1: QVQLVQSGAEVKKPGASVKVSCKTSGYTFTEYTMHWVRQAPGQSLEWMGGIDPNNGNTHYNQKFQGRVTITVDKSASTAYMELSSLRSEDTAVYYCARIYYLGRLYFDFWGAGTLVTVSSASTKGPSVFPLAPSSKSTSGGTAALGCLVKDYFPEPVTVSWNSGALTSGVHTFPAVLQSSGLYSLSSVVTVPSSSLGTQTYICNVNHKPSDTKVDKKVEPKSCDKTHTCPPCPAPPVAGPSVFLFPPKPKDTLMISRTPEVTCVVVDVKHEDPEVKFNWYVDGVEVHNAKTKPREEEYNSTYRVVSVLTVLHQDWLNGKEYKCKVSNKALPAPIEKTISKAKGQPREPQVYTLPPSREEMTKNQVSLTCDVSGFYPSDIAVEWESDGQPENNYKTTPPVLDSDGSFFLYSKLTVDKSRWEQGDVFSCSVMHEALHNHYTQKSLSLSPGK
heavy 2: QVQLVQSGAEVKKPGASVKVSCKTSGYTFTEYTMHWVRQAPGQSLEWMGGIDPNNGNTHYNQKFQGRVTITVDKSASTAYMELSSLRSEDTAVYYCARIYYLGRLYFDFWGAGTLVTVSSASTKGPSVFPLAPSSKSTSGGTAALGCLVKDYFPEPVTVSWNSGALTSGVHTFPAVLQSSGLYSLSSVVTVPSSSLGTQTYICNVNHKPSNTKVDKKVEPKSCGGGGSGGGGSQAVVTQEPSLTVSPGGTVTLTCGSSTGAVTTSNYANWVQQKPGKSPRGLIGGTNKRAPGVPARFSGSLLGGKAALTISGAQPEDEADYYCALWYSNHWVFGGGTKLTVLGKPGSGKPGSGKPGSGKPGSEVQLVESGGGLVQPGGSLRLSCAASGFTFSTYAMNWVRQAPGKGLEWVGRIRSKANNYATYYADSVKGRFTISRDDSKNTLYLQMNSLRAEDTAVYYCVRHGNFGDSYVSWFAYWGQGTLVTVSSGGGGSGGGGSKTHTCPPCPAPPVAGPSVFLFPPKPKDTLMISRTPEVTCVVVDVKHEDPEVKFNWYVDGVEVHNAKTKPREEQYNSTYRVVSVLTVLHQDWLNGKEYKCKVSNKALPAPIEKTISKAKGQPREPQVYTLPPSREQMTKNQVKLTCLVKGFYPSDIAVEWESNGQPENNYKTTPPVLDSDGSFFLYSKLTVDKSRWQQGNVFSCSVMHEALHNHYTQKSLSLSPGK
light: not shown
notes: copies: 1 + 1 + 2

The remaining lines, values behind:

B1: XENP37233 (C6-30_H2.91_L1.187), 2+1 Fab2-scFv-Fc bsAb with CD3 High-Int #1 (bispecific antibody)
heavy 1: EVQLVQSGAEVKKPGESLRISCKTSGYTFTEYTMHWVRQMPGKSLEWMGGIDPNNFNTHYNQKFQGHVTISVDKSISTAYLQWSSLKASDTAMYYCARIYYFGRLYFDFWGAGTLVTVSSASTKGPSVFPLAPSSKSTSGGTAALGCLVKDYFPEPVTVSWNSGALTSGVHTFPAVLQSSGLYSLSSVVTVPSSSLGTQTYICNVNHKPSDTKVDKKVEPKSCDKTHTCPPCPAPPVAGPSVFLFPPKPKDTLMISRTPEVTCVVVDVKHEDPEVKFNWYVDGVEVHNAKTKPREEEYNSTYRVVSVLTVLHQDWLNGKEYKCKVSNKALPAPIEKTISKAKGQPREPQVYTLPPSREEMTKNQVSLTCDVSGFYPSDIAVEWESDGQPENNYKTTPPVLDSDGSFFLYSKLTVDKSRWEQGDVFSCSVMHEALHNHYTQKSLSLSPGK
heavy 2: EVQLVQSGAEVKKPGESLRISCKTSGYTFTEYTMHWVRQMPGKSLEWMGGIDPNNFNTHYNQKFQGHVTISVDKSISTAYLQWSSLKASDTAMYYCARIYYFGRLYFDFWGAGTLVTVSSASTKGPSVFPLAPSSKSTSGGTAALGCLVKDYFPEPVTVSWNSGALTSGVHTFPAVLQSSGLYSLSSVVTVPSSSLGTQTYICNVNHKPSNTKVDKKVEPKSCGGGGSGGGGSQAVVTQEPSLTVSPGGTVTLTCGSSTGAVTTSNYANWVQQKPGKSPRGLIGGTNKRAPGVPARFSGSLLGGKAALTISGAQPEDEADYYCALWYSNHWVFGGGTKLTVLGKPGSGKPGSGKPGSGKPGSEVQLVESGGGLVQPGGSLRLSCAASGFTFSTYAMNWVRQAPGKGLEWVGRIRSKANNYATYYADSVKGRFTISRDDSKNTLYLQMNSLRAEDTAVYYCVRHGNFGDSYVSWFAYWGQGTLVTVSSGGGGSGGGGSKTHTCPPCPAPPVAGPSVFLFPPKPKDTLMISRTPEVTCVVVDVKHEDPEVKFNWYVDGVEVHNAKTKPREEQYNSTYRVVSVLTVLHQDWLNGKEYKCKVSNKALPAPIEKTISKAKGQPREPQVYTLPPSREQMTKNQVKLTCLVKGFYPSDIAVEWESNGQPENNYKTTPPVLDSDGSFFLYSKLTVDKSRWQQGNVFSCSVMHEALHNHYTQKSLSLSPGK
light: not shown
notes: copies: 1 + 1 + 2
binding result (human CLDN6 [1]): binds

B2: XENP34218, humanized C6-30 H1L1 bivalent mAb (antibody, human IgG1, kappa, V domains shown)
VH: B7 VH
VL: B8 VL
notes: IgG1 backbone with E233P/L234V/L235A/G236del/S267K ablation variant; also called XENP34218_HIL1
CLDN9/CLDN6 EC50 ratio (human CLDN6 [2]): 23

B3: XENP35093 (having C6-30 H1.9_L1) (antibody, human IgG1, kappa, V domains shown)
VH: B7 VH with G56A
VL: B8 VL
notes: Bivalent mAb; also called G55A; copies: 2 + 2
binding result (human CLDN6 [3]): binds

B4: XENP36972 having H1_L1.187 (antibody, human IgG1, kappa, V domains shown)
VH: B7 VH
VL: B8 VL with S94A
notes: Bivalent mAb; also called C6-30 H1_L1.187; copies: 2 + 2
CLDN9/CLDN6 EC50 ratio (human CLDN6 [2]): 52.6

B5: XENP34221, humanized C6-30 H2L2 bivalent mAb (antibody, human IgG1, kappa, V domains shown)
VH: B8 VH
VL: B7 VL
notes: as for B7
binding result (human CLDN6 [4]): binds

B6: XENP35101 having H2.8_L1 (antibody, human IgG1, kappa, V domains shown)
VH: B8 VH with G56D
VL: B8 VL
notes: Bivalent mAb; also called C6-30 H2.8_L1; copies: 2 + 2
binding result (human CLDN9): binds

B10: XENP37227 (C6-30_H1.9_L1.187), 2+1 Fab2-scFv-Fc bsAb with CD3 High-Int #1 (bispecific antibody)
heavy 1: B11 heavy 1 with G56A, L102F
heavy 2: B11 heavy 2 with G56A, L102F
light: not shown
notes: copies: 1 + 1 + 2
binding result (human CLDN6 [1]): binds

— patent US20240400675A1 (published 2024)
